Patent publication US5981167A, “Surface plasmon resonance based enzymatic assay” (priority 1998, dated 1999)

What was measured:
[1] = test system: HCV protease His-NS3(183)Δ4AHT; settings: concentrated enzyme
[2] = target: maturation site peptide […] (CMV)
[3] = test system: in vitro-translated 5A/5B substrate; assay: Trans-cleavage assay in the presence of 4A peptide; assay type: biochemical, HCV; settings: refolded protein
Excerpt: Precipitation of protein occurred at the last step of dialysis, and the soluble protein was clarified by centrifugation. The overall protein recovery was about 0.10%.

Molecule: Biotin-DTEDVVAC SMSYTWTGK-pY
- time to 50% substrate cleavage [1]: ≤ 1 h

Molecule: CMV protease, refolded wild type (from UniProt P16753) (enzyme)
- Km [2]: 1020 µM

B1: HisHIV183: HCV NS3 protease without solubilizing motif, refolded from E. coli inclusion body pellet (protein)
chain: APITAYAQQTRGLLGCIITSLTGRDKNQVEGEVQIVSTATQTFLATCINGVCWTVYHGAGTRTIASPKGPVIQTYTNVDQDLVGWPAPQGSRSLTPCTCGSSDLYLVTRHADVIPVRRRGDSRGSLLSPRPISYLKGSSGGPLLCPTGHAVGLFRAAVCTRGVAKAVDFIPVENLETTMRSPV
- activity in trans-cleavage assay [3]: active
